According to paper PMC6097307, “Development and characterization of an HPV18 detection kit using two novel HPV18 type-specific monoclonal antibodies” (Diagnostic Pathology, 2018):

Legend:
[1] = biological target: T1, HPV18 L1 virus-like particle (Human papillomavirus type 18, isolate …, UniProt P06794); assay: cell-based or functional assay
[2] = biological target: T2, HPV58 L1 virus-like particle (Human papillomavirus type 58, isolate …, UniProt P26535); assay: ELISA; indirect ELISA as a2 but L1-VLPs denatured (0.2 M sodium carbonate pH 10.6, 10 mM DTT, 30 min, boiled 5 min) before coating; mAb 0.3 μg/ml; details: both partners purified
T2 construct: major capsid protein L1 of human papillomavirus type 58, assembled into virus-like particles; Used native and denatured; also called HPV58 L1-VLP

[3] = biological target: T3, HPV16 L1 virus-like particle (Human papillomavirus type 16, isolate …, UniProt P03101); assay: as above; details: both partners purified
T3 construct: major capsid protein L1 of human papillomavirus type 16, assembled into virus-like particles; Used native and denatured; also called HPV16 L1-VLP

[4] = biological target: T4, HPV31 L1 virus-like particle (Human papillomavirus type 31, isolate …, UniProt P17388); assay: as above; details: both partners purified
T4 construct: major capsid protein L1 of human papillomavirus type 31, assembled into virus-like particles; Used native and denatured; also called HPV31 L1-VLP; HPV31VLP

[5] = biological target: T5, HPV33 L1 virus-like particle (Human papillomavirus type 33, isolate …, UniProt P06416); assay: as above; details: both partners purified
T5 construct: major capsid protein L1 of human papillomavirus type 33, assembled into virus-like particles; Used native and denatured; also called HPV33 L1-VLP

[6] = biological target: T6, HPV45 L1 virus-like particle (Human papillomavirus type 45, isolate …, UniProt P36741); assay: as above; details: both partners purified
T6 construct: major capsid protein L1 of human papillomavirus type 45, assembled into virus-like particles; Used native and denatured; also called HPV45 L1-VLP

[7] = biological target: T7, HPV11 L1 virus-like particle (Human papillomavirus type 11, isolate …, UniProt P04012); assay: ELISA; indirect ELISA; native L1-VLPs of nine HPV types coated at 200 ng/well overnight at 4 °C; mAb 0.3 μg/ml, 1 h, room temperature; HRP goat anti-mouse IgG; details: both partners purified
T7 construct: major capsid protein L1 of human papillomavirus type 11, assembled into virus-like particles; Used native and denatured; also called HPV11 L1-VLP

[8] = biological target: T1, HPV18 L1 virus-like particle; assay: SPR; BIACORE3000; L1-VLPs coupled to the chip (40 μg/ml, acetate pH 5.5, 4000 RU); antibodies at seven concentrations 0.3125 to 20 nM in PBS; binding 60 s, dissociation 500 s; details: both partners purified
[9] = biological target: T2, HPV58 L1 virus-like particle; assay: ELISA; indirect ELISA; native L1-VLPs of nine HPV types coated at 200 ng/well overnight at 4 °C; mAb 0.3 μg/ml, 1 h, room temperature; HRP goat anti-mouse IgG; details: both partners purified
[10] = biological target: T3, HPV16 L1 virus-like particle; assay: as above; details: both partners purified
[11] = biological target: T4, HPV31 L1 virus-like particle; assay: as above; details: both partners purified
[12] = biological target: T5, HPV33 L1 virus-like particle; assay: as above; details: both partners purified
[13] = biological target: T6, HPV45 L1 virus-like particle; assay: as above; details: both partners purified

T1 sequence (P06794 whole entry): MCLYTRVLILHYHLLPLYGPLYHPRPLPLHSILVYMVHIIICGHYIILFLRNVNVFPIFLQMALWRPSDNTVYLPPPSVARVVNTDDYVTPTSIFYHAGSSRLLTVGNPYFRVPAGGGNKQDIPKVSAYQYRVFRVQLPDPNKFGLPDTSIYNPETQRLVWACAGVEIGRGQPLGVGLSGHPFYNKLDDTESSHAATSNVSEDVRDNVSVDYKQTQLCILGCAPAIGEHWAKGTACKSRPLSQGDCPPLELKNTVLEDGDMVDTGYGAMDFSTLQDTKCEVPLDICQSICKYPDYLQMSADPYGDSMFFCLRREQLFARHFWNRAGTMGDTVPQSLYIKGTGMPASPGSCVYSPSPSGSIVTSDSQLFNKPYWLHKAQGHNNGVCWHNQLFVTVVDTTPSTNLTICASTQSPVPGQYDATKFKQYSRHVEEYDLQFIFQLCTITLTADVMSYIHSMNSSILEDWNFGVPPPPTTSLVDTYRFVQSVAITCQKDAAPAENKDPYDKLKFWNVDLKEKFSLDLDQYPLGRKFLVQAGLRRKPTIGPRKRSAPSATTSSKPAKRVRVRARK
T7 sequence (P04012 whole entry): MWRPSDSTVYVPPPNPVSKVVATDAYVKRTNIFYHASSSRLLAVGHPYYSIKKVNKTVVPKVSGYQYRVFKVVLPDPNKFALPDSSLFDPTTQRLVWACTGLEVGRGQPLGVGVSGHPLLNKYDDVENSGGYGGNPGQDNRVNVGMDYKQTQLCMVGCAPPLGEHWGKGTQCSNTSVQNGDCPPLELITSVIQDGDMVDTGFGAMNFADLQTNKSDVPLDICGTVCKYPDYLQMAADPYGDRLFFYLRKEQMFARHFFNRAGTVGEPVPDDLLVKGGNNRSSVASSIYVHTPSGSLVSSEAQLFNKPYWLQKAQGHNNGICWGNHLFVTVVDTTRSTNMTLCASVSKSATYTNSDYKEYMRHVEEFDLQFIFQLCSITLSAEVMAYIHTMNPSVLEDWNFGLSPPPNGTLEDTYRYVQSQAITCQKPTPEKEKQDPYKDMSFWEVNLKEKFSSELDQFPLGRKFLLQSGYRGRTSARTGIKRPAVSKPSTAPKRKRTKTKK
T6 sequence (P36741 whole entry): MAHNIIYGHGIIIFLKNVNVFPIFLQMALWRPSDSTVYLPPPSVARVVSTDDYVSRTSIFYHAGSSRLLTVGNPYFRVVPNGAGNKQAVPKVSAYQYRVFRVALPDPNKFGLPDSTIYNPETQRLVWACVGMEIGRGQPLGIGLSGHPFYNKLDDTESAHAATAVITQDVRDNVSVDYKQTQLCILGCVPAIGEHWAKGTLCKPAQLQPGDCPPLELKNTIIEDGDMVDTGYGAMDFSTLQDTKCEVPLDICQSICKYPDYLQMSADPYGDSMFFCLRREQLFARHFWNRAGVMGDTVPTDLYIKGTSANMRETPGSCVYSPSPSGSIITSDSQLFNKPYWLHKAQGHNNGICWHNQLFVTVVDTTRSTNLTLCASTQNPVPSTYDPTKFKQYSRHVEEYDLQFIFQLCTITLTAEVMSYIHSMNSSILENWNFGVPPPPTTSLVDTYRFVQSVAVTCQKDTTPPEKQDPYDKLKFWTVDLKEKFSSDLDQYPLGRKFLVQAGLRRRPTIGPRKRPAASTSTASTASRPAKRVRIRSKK
T5 sequence (P06416 whole entry): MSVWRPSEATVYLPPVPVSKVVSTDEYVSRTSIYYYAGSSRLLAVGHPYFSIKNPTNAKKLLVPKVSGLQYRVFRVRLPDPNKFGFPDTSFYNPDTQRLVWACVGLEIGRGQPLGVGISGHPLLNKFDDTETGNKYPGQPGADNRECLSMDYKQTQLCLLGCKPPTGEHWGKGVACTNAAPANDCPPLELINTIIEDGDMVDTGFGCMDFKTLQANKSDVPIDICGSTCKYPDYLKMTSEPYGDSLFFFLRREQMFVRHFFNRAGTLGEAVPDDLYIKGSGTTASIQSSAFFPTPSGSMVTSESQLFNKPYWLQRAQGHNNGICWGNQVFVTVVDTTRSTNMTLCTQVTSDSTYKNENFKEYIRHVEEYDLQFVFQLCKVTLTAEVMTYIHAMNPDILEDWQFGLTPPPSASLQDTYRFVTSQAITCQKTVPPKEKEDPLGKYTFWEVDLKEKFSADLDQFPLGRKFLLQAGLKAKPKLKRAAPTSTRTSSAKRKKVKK
T2 sequence (P26535 whole entry): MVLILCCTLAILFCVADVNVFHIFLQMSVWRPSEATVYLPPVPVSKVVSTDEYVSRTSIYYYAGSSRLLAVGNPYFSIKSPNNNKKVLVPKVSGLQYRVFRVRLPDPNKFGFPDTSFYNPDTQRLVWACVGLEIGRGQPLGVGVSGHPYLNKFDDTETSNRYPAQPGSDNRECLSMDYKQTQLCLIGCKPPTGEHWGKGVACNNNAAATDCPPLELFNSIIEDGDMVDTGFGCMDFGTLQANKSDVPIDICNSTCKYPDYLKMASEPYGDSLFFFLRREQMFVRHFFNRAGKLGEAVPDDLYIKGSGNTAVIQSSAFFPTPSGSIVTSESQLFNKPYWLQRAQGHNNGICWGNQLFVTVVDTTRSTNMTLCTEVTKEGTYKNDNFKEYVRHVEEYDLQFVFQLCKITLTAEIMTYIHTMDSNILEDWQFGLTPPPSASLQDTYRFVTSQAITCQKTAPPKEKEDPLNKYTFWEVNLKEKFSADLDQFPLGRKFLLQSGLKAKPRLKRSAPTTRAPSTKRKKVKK
T3 sequence (P03101 whole entry): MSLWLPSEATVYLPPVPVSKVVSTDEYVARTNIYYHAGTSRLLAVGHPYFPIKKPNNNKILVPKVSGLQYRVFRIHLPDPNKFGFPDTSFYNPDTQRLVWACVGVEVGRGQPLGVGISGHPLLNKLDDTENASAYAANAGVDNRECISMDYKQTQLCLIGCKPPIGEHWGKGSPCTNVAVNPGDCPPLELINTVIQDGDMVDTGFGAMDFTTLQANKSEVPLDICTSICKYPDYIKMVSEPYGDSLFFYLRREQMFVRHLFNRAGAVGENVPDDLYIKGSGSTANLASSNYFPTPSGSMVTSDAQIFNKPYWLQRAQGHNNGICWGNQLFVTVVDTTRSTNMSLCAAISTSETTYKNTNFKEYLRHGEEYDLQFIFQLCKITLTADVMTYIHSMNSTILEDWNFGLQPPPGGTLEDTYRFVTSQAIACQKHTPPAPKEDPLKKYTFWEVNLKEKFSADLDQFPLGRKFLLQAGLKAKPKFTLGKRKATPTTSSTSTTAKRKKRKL
T4 sequence (P17388 whole entry): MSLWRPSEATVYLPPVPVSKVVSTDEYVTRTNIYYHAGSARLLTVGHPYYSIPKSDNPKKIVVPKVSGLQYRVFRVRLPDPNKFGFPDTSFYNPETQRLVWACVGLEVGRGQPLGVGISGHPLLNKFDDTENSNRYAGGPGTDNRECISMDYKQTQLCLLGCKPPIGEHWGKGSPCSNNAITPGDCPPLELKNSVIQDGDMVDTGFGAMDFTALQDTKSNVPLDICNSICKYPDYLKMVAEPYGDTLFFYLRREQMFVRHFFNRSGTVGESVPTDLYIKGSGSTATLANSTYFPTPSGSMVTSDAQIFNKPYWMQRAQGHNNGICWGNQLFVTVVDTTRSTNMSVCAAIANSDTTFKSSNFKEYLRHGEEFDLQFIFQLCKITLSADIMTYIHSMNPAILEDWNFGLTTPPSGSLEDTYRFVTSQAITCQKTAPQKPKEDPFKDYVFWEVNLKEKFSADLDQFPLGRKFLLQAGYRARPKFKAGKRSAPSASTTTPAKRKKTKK

B1: monoclonal antibody 1B1 against HPV18 L1-VLP (antibody, V domains shown)
VH: VQLQQSGGDLVKPGGSLKLSCAASGFTFSSYGMSWVRQTPDKRLEWVATISGGGSYTYYPDSVKGRFTISRDNAKNTLYLQMSSLKSEDTAMYYCSRHDSYGNYAAWFAYWGQGTTVTVS
VL: DIQLTQSPALMAASPGEKVTITCSVSSSISSSNLHWYQQKSETSPKPWIYGTSNLASGVPVRFSGSGSGTSYSLTISSMEAEDAATYYCQQWSSYPFTFGSGTKLEI
notes: IgG1; unconjugated in indirect ELISA and SPR; also called mAb 1B1; 1B1-HRP; source: mouse hybridoma (BALB/c spleen cells fused with SP2/0), ascites, purified on Protein G; copies: 2 + 2
[1]
  IC50 of neutralisation of HPV18 pseudovirus (PsV18) infection of 293FT cells, fluorescence by flow cytometry: 0.039 µg/mL
[2]
  binding result: no binding (tested: 0.3 μg/ml mAb)
[3]
  binding result: no binding (tested: 0.3 μg/ml mAb)
[4]
  binding result: no binding (tested: 0.3 μg/ml mAb)
[5]
  binding result: no binding (tested: 0.3 μg/ml mAb)
[6]
  binding result: no binding (tested: 0.3 μg/ml mAb)
[7]
  binding result: no binding (tested: 0.3 μg/ml mAb)
[8]
  Kd: 2.06 nM
  koff: 0.00192 s⁻¹
  kon: 931000 M⁻¹ s⁻¹

B2: monoclonal antibody 4C2 against HPV18 L1-VLP (antibody, V domains shown)
VH: VKLQESGAELMKPGASVKISCKATGYTFRSYWIEWVKQRPGHGLEWIGEILPGSGITNYNEKFKGKATFTADTSSNTAYMQLSSLTSEDSAVYYCARHWDGNAMDYWGQGTTVTVSS
VL: DIQLTQSPLSLPVSLGDQASISCRSSQSIVHSNGNTYLEWYLQKPGQSPKLLIYKVSNRFSGVPDRFSGSGSGTDFTLKISRVEAEDLGVYYCFQGSHVPLTFGAGTKLEI
notes: IgG1; Coating antibody of the sandwich ELISA kit; also called mAb 4C2; source: mouse hybridoma (BALB/c spleen cells fused with SP2/0), ascites, purified on Protein G; copies: 2 + 2
[1]
  IC50 of neutralisation of HPV18 pseudovirus (PsV18) infection of 293FT cells, fluorescence by flow cytometry: 10 µg/mL
[9]
  binding result: no binding (tested: 0.3 μg/ml mAb)
[7]
  binding result: no binding (tested: 0.3 μg/ml mAb)
[10]
  binding result: no binding (tested: 0.3 μg/ml mAb)
[11]
  binding result: no binding (tested: 0.3 μg/ml mAb)
[12]
  binding result: no binding (tested: 0.3 μg/ml mAb)
[13]
  binding result: no binding (tested: 0.3 μg/ml mAb)
[8]
  Kd: 7.45 nM
  koff: 0.0178 s⁻¹
  kon: 2.38e+06 M⁻¹ s⁻¹
